Source: the supplement of paper PMC10724198
± gives the standard deviation of the averaged measurements.

tested on: Saccharomyces cerevisiae; assay: protein stability index of tFT-peptide fusion (C-terminal peptide) (PSI (0-1 scale)); higher = more stable (slower turnover); conditions: genetic background: wild type; temperature: 30 C
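Note: PSI is a weighted mean of sequencing reads over stability bins, variants kept only with over 10 reads, mCherry proximal and sfGFP distal, peptide attached via GGGS linker.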

| Sequence | protein stability index |
| --- | --- |
| MSLSLLSLFSSL | 0.606 ± 0.027 |
| MTYKSKNRATEE | 0.648 ± 0.025 |
| NAVCCGKWRGGS | 0.714 ± 0.11 |
| NCGGQGKEDGCK | 0.621 ± 0.013 |
| NEGRRNSRRHGG | 0.683 ± 0.028 |
| NEHTTLKITKNK | 0.6818 ± 0.003 |
| NEIENYKDIIEK | 0.684 ± 0.011 |
| NESGWHNLLMSV | 0.708 ± 0.0097 |
| NESLKHDCVKDT | 0.735 ± 0.13 |
| NETVIATLGKGA | 0.657 ± 0.037 |
| NEYFYINVRNRV | 0.6743 ± 0.0017 |
| NFAFPWTSTHAF | 0.699 ± 0.017 |
| NFLVNGRASLKV | 0.583 ± 0.016 |
| NGGRCRIARVLE | 0.679 ± 0.023 |
| NGGRSATGSVVV | 0.701 ± 0.066 |
| NGLPGNLYAGKT | 0.6558 ± 0.0062 |
| NGPAPTFSPAVR | 0.685 ± 0.032 |
| NHETRNCEGINS | 0.657 ± 0.026 |
| NHRETNRNRGKL | 0.75295 ± 0.00072 |
| NHTKAGTEKNKN | 0.618 ± 0.067 |
| NIIRGVIAGNPA | 0.747 ± 0.026 |
| NILTIYRTMKSR | 0.6855 ± 0.0056 |
| NKFSAFSPETWS | 0.7385 ± 0.00092 |
| NKIDNNKKIHRV | 0.699 ± 0.053 |
| NKKEYHDRKKKS | 0.619 ± 0.045 |
| NKKKKKRNKQKN | 0.762 ± 0.011 |

| Sequence | protein stability index |
| --- | --- |
| NKQKKDEKNKTE | 0.73 ± 0.17 |
| NKREYYWINLEC | 0.562 ± 0.014 |
| NKRKIKKKKKRG | 0.651 ± 0.088 |
| NLETDRRRTYGM | 0.697 ± 0.036 |
| NLETVAENMFLA | 0.71 ± 0.053 |
| NLEVNFKNIYVK | 0.679 ± 0.038 |
| NLPERSRANTLS | 0.6749 ± 0.0061 |
| NLPLPPSPFALP | 0.733 ± 0.053 |
| NLRLYDCKVAPP | 0.691 ± 0.036 |
| NLRQKQKKIKKT | 0.642 ± 0.041 |
| NLYENQDHETYR | 0.651 ± 0.13 |
| NMPGALETKMGV | 0.599 ± 0.054 |
| NNIMKPKRKIIK | 0.683 ± 0.031 |
| NNRLSEDVLCEY | 0.665 ± 0.078 |
| NNTVRTPKLSIE | 0.71584 ± 0.00044 |
| NPLRVRNNNDGL | 0.745 ± 0.047 |
| NPLSSPSLPPSS | 0.625 ± 0.057 |
| NPPAPPAPHLST | 0.685 ± 0.013 |
| NPRGAKRRNSRK | 0.663 ± 0.058 |
| NPSNEKERRKKN | 0.704 ± 0.02 |
| NPYLLCKFSTLL | 0.675 ± 0.028 |
| NQDIKAENTIKL | 0.668 ± 0.057 |
| NQHNARTRWLCP | 0.645 ± 0.017 |
| NQNKENKEIDRK | 0.64 ± 0.097 |
| NQSSTSEENSGG | 0.653 ± 0.024 |
| NQTVEQPLPTSL | 0.708 ± 0.042 |

| Sequence | protein stability index |
| --- | --- |
| NRAIVAYFPGMF | 0.666 ± 0.042 |
| NRDSALGPTWAP | 0.718 ± 0.034 |
| NRDSPPAGEIHA | 0.648 ± 0.082 |
| NREPQPAHTHML | 0.684 ± 0.043 |
| NRNDKNIERRKM | 0.69 ± 0.069 |
| NRTGVRIEIKGR | 0.636 ± 0.081 |
| NSTLSSNATRVK | 0.727 ± 0.015 |
| NTDSHIKIRKKI | 0.7032 ± 0.0068 |
| NTKEETKESRGR | 0.713 ± 0.059 |
| NTPSKKHDLNRL | 0.707 ± 0.033 |
| NTSPTRLSCPVF | 0.616 ± 0.11 |
| NTTITKMYTKEW | 0.714 ± 0.05 |
| NVAKTTTRHNRP | 0.718 ± 0.011 |
| NVEARLARVHWM | 0.73 ± 0.12 |
| NVEPWTRGMGSA | 0.659 ± 0.02 |
| NVLSGIDKRLTI | 0.71 ± 0.053 |
| NVLVRFFSSGVW | 0.85 ± 0.047 |
| NVRCLVELGGEV | 0.714 ± 0.058 |
| NWRCTLGWSWVR | 0.706 ± 0.058 |
| NYAMRGSVRTDK | 0.665 ± 0.028 |
| NYHAIANRILAK | 0.6026 ± 0.004 |
| NYIIRKTKERHK | 0.781 ± 0.11 |
| NYMQVSIKNKKE | 0.641 ± 0.028 |
| NYNNGHNLKKER | 0.634 ± 0.012 |
| NYYLPLESCTIG | 0.664 ± 0.03 |
| PAAFPRPTRHAA | 0.693 ± 0.067 |

| Sequence | protein stability index |
| --- | --- |
| PAASRPPSPSLL | 0.665 ± 0.046 |
| PAAVAQAFPLIT | 0.649 ± 0.05 |
| PACVLVRRGWYL | 0.7277 ± 0.0029 |
| PAGPPHPCPHPS | 0.708 ± 0.05 |
| PAHAPSLSPPPF | 0.697 ± 0.016 |
| PAKTEPGPLNHR | 0.68 ± 0.02 |
| PAPLPPPPPPRP | 0.689 ± 0.015 |
| PAPLSRPLSPTL | 0.6841 ± 0.0055 |
| PAPPLPPPAAPP | 0.576 ± 0.0069 |
| PAPPLPPPPSPY | 0.72 ± 0.11 |
| PAPVFPILTPPY | 0.734 ± 0.059 |
| PARFPPLPFPPI | 0.74 ± 0.035 |
| PARPEPPRANWR | 0.647 ± 0.058 |
| PASFAYRTLNMV | 0.661 ± 0.082 |
| PASPLFAPSVVP | 0.747 ± 0.0086 |
| PASPPPRTISSP | 0.704 ± 0.064 |
| PASRLHSPSSPP | 0.703 ± 0.038 |
| PATPPPLPPLSP | 0.701 ± 0.054 |
| PATQTRKETRTP | 0.69 ± 0.059 |
| PATTVAKGSHQF | 0.717 ± 0.026 |
| PAVISLLPVWFT | 0.691 ± 0.015 |
| PAWGEQYYGNVR | 0.69 ± 0.057 |
| PAYTRDIRKPRH | 0.654 ± 0.051 |
